Measured values reported in patent US11795460B2, “Compositions and methods for TTR gene editing and treating ATTR amyloidosis” (Intellia Therapeutics, Inc., priority 2017, dated 2023).
Strand notation (5' to 3'): a small letter for the sugar, then the base; units joined by * are phosphorothioate-linked, units joined directly phosphodiester-linked; [ ] holds rarer units or linkages, { } end groups; capitals alone tell only the bases. m = 2'-O-methyl; r = 2'-OH (RNA)

What was measured:
TTR = TTR editing in primary human hepatocytes transfected with Spy Cas9 protein and sgRNAs (Table 12); assay type: cell-based; conditions: primary human hepatocytes transfected with Spy Cas9 protein (RNP) and sgRNAs
Protocol: Primary liver hepatocytes. Primary human liver hepatocytes (PHH) and primary cynomolgus liver hepatocytes (PCH) (Gibco) were cultured per the manufacturer's protocol (Invitrogen, protocol 11.28.2012). In brief, the cells were thawed and resuspended in hepatocyte thawing medium with supplements (Gibco, Cat. CM7000) followed by centrifugation at 100 g for 10 minutes for human and 80 g for 4 minutes for cyno. The supernatant was discarded and the pelleted cells resuspended in hepatocyte plating medium plus supplement pack (Invitrogen, Cat. A1217601 and CM3000). Cells were counted and plated on Bio-coat collagen I coated 96-well plates (ThermoFisher, Cat. 877272) at a density of 33,000 cells/well for human or 60,000 cells/well for cyno (or 65,000 cells/well when assaying effects on TTR protein, described further below). Plated cells were allowed to settle and adhere for 6 or 24 hours in a tissue culture incubator at 37° C. and 5% CO2 atmosphere. After incubation cells were checked for monolayer formation and media was replaced with hepatocyte culture medium with serum-free supplement pack (Invitrogen, Cat. A1217601 and CM4000).
[…] formation was performed prior to electroporation or transfection of Spy Cas9 protein loaded with guide RNAs (RNPs) onto cells. For dual guide (dgRNAs), individual crRNA and trRNA was pre-annealed by mixing equivalent amounts of reagent and incubating at 95° C. for 2 min and cooling to room temperature. Single guide (sgRNAs) were boiled at 95° C. for 2 min and cooling to room temperature. The boiled dgRNA or sgRNA was incubated with Spy Cas9 protein in Optimem for 10 minutes at room temperature to form a ribonucleoprotein (RNP) complex.
For RNP lipoplex transfections, cells were transfected with Lipofectamine RNAiMAX (ThermoFisher, Cat. 13778150) per the manufacturer's protocol. Cells were transfected with an RNP containing Spy Cas9 (10 nM), individual guide (10 nM), tracer RNA (10 nM), Lipofectamine RNAiMAX (1.0 μL/well) and OptiMem. RNP formation was performed as described above.
Transfected cells were harvested post-transfection at 24, 48, or 72 hours. The genomic DNA was extracted from each well of a 96-well plate using 50 μL/well BuccalAmp DNA Extraction solution (Epicentre, Cat. QE09050) per manufacturer's protocol. All DNA samples were subjected to PCR and subsequent NGS analyses, as described herein.
To quantitatively determine the efficiency of editing at the target location in the genome, sequencing was utilized to identify the presence of insertions and deletions introduced by gene editing.
Primers were designed around the target site within the gene of interest (e.g. TTR), and the genomic area of interest was amplified.
Additional PCR was performed per the manufacturer's protocols (Illumina) to add chemistry for sequencing. The amplicons were sequenced on an Illumina MiSeq instrument. The reads were aligned to a reference genome (e.g., the human reference genome (hg38), the cynomologus reference genome (mf5), the rat reference genome (rn6), or the mouse reference genome (mm10)) after eliminating those having low quality scores. The resulting files containing the reads were mapped to the reference genome (BAM files), where reads that overlapped the target region of interest were selected and the number of wild type reads versus the number of reads which contain an insertion, substitution, or deletion was calculated.
The editing percentage (e.g., the “editing efficiency” or “percent editing” or “indel frequency”) is defined as the total number of sequence reads with insertions/deletions (“indels”) or substitutions over the total number of sequence reads, including wild type.
Guides in modified sgRNA format targeting human and/or cyno TTR were delivered to primary human hepatocytes and primary cyno hepatocytes as described in Example 1. […]

TTR mRNA = TTR mRNA knockdown in primary human hepatocytes by quantitative PCR (Tables 34, 35); assay type: cell-based; conditions: TTR mRNA in PHH, 96 hours after treatment, vs untreated control
Protocol: In one experiment, PHH were cultured and treated with LNPs comprising Cas9 mRNA (SEQ ID NO:1) and a gRNA of interest (See FIG. 29, Table 34), as described in Example 4. The LNPs were prepared using the cross-flow procedure described above and purified and concentrated using PD-10 columns and Amicon centrifugal filter units, respectively. The LNPs were formulated with an N:P ratio of 6.0 and contained Lipid A, Cholesterol, DSPC, and PEG2k-DMG in a 50:38:9:2 molar ratio, respectively. The LNPs comprised a gRNA:mRNA ratio of 1:2, and the cells were treated at a dose of 300 ng (with respect to the amount of mRNA cargo delivered).
(§1) Ninety-six (96) hours following LNP treatment (with biological triplicates for each condition), mRNA was purified from PHH cells using the Dynabeads mRNA DIRECT Kit (ThermoFisher Scientific) according to the manufacturer's protocol. Reverse Transcription (RT) was performed with Maxima reverse transcriptase (ThermoFisher Scientific) and a poly-dT primer. The resulting cDNA was purified with Ampure XP Beads (Agencourt). For Quantitative PCR, 2% of the purified cDNA was amplified with Taqman Fast Advanced Mastermix and 3 Taqman probe sets, TTR (Assay ID: Hs00174914_m1), GAPDH (Assay ID: Hs02786624_g1), and PPIB (Assay ID: Hs00168719_m1). The assays were run on the QuantStudio 7 Flex Real Time PCR System according to the manufacturer's instructions (Life Technologies). Relative expression of TTR mRNA was calculated by normalizing to the endogenous controls (GAPDH and PPIB) individually, and then averaged.
In a separate experiment, TTR mRNA knockdown was evaluated following treatment with LNPs comprising G000480, G000486, and G000502. The LNPs were formulated and PHH were cultured and treated with the LNPs, each as described in the experiment above in this Example with the exception that the cells were treated at a dose of 100 ng (with respect to the amount of mRNA cargo delivered).
as §1, with “(single treatment” for “(with biological triplicates”, “the High Capacity cDNA Reverse Transcription Kit” for “Maxima reverse transcriptase”, “according to the manufacturer's instructions.” for “and a poly-dT primer. The resulting cDNA was purified with Ampure XP Beads (Agencourt).”, “the” for “the purified”

[1] = LNP dose 300 ng mRNA cargo, gRNA:mRNA 1:2, biological triplicates

B1: G000484: TTR sgRNA modified sequence, Human, SEQ ID No. 91; guide sequence of CR003367 (nucleic acid)
guide: mA*mG*mA*rCrArCrCrArArArUrCrUrUrArCrUrGrGrArGrUrUrUrUrArGrAmGmCmUmAmGmAmAmAmUmAmGmCrArArGrUrUrArArArArUrArArGrGrCrUrArGrUrCrCrGrUrUrArUrCrAmAmCmUmUmGmAmAmAmAmAmGmUmGmGmCmAmCmCmGmAmGmUmCmGmGmUmGmCmU*mU*mU*mU
Avg % Deletion (TTR): 33.83%
Avg % Edit (TTR): 62.97%
Avg % Insert (TTR): 29.23%
Avg % Knockdown (TTR mRNA; [1]): 75.22%

B2: G000490: TTR sgRNA modified sequence, Human, SEQ ID No. 97; guide sequence of CR003366 (nucleic acid)
guide: mA*mA*mA*rUrArGrArCrArCrCrArArArUrCrUrUrArCrGrUrUrUrUrArGrAmGmCmUmAmGmAmAmAmUmAmGmCrArArGrUrUrArArArArUrArArGrGrCrUrArGrUrCrCrGrUrUrArUrCrAmAmCmUmUmGmAmAmAmAmAmGmUmGmGmCmAmCmCmGmAmGmUmCmGmGmUmGmCmU*mU*mU*mU
Avg % Deletion (TTR): 9.80%
Avg % Edit (TTR): 55.90%
Avg % Insert (TTR): 46.13%
Avg % Knockdown (TTR mRNA; [1]): 78.34%

B3: G000483: TTR sgRNA modified sequence, Human, SEQ ID No. 90; guide sequence of CR005298 (nucleic acid)
guide: mU*mC*mC*rArCrUrCrArUrUrCrUrUrGrGrCrArGrGrArGrUrUrUrUrArGrAmGmCmUmAmGmAmAmAmUmAmGmCrArArGrUrUrArArArArUrArArGrGrCrUrArGrUrCrCrGrUrUrArUrCrAmAmCmUmUmGmAmAmAmAmAmGmUmGmGmCmAmCmCmGmAmGmUmCmGmGmUmGmCmU*mU*mU*mU
Avg % Deletion (TTR): 28.50%
Avg % Edit (TTR): 47.90%
Avg % Insert (TTR): 19.57%
Avg % Knockdown (TTR mRNA; [1]): 68.78%

B4: G000486: TTR sgRNA modified sequence, Human, SEQ ID No. 93; guide sequence of CR003339 (nucleic acid)
guide: mA*mC*mA*rCrArArArUrArCrCrArGrUrCrCrArGrCrArGrUrUrUrUrArGrAmGmCmUmAmGmAmAmAmUmAmGmCrArArGrUrUrArArArArUrArArGrGrCrUrArGrUrCrCrGrUrUrArUrCrAmAmCmUmUmGmAmAmAmAmAmGmUmGmGmCmAmCmCmGmAmGmUmCmGmGmUmGmCmU*mU*mU*mU
Avg % Deletion (TTR): 59.93%
Avg % Edit (TTR): 69.73%
Avg % Insert (TTR): 9.83%
Avg % Knockdown (TTR mRNA; LNP dose 100 ng mRNA cargo, separate experiment): 97.36%

B5: G000500: TTR sgRNA modified sequence, Human, SEQ ID No. 107; guide sequence of CR003337 (nucleic acid)
guide: mC*mC*mA*rGrUrCrCrArGrCrArArGrGrCrArGrArGrGrGrUrUrUrUrArGrAmGmCmUmAmGmAmAmAmUmAmGmCrArArGrUrUrArArArArUrArArGrGrCrUrArGrUrCrCrGrUrUrArUrCrAmAmCmUmUmGmAmAmAmAmAmGmUmGmGmCmAmCmCmGmAmGmUmCmGmGmUmGmCmU*mU*mU*mU
Avg % Deletion (TTR): 3.83%
Avg % Edit (TTR): 65.53%
Avg % Insert (TTR): 62.00%
Avg % Knockdown (TTR mRNA; [1]): 92.90%

B6: G000493: TTR sgRNA modified sequence, Human, SEQ ID No. 100; guide sequence of CR003368 (nucleic acid)
guide: mA*mA*mG*rUrGrCrCrUrUrCrCrArGrUrArArGrArUrUrGrUrUrUrUrArGrAmGmCmUmAmGmAmAmAmUmAmGmCrArArGrUrUrArArArArUrArArGrGrCrUrArGrUrCrCrGrUrUrArUrCrAmAmCmUmUmGmAmAmAmAmAmGmUmGmGmCmAmCmCmGmAmGmUmCmGmGmUmGmCmU*mU*mU*mU
Avg % Deletion (TTR): 2.67%
Avg % Edit (TTR): 41.40%
Avg % Insert (TTR): 38.90%
Avg % Knockdown (TTR mRNA; [1]): 87.53%
